Source: PMC5880808, “A lever-like transduction pathway for long-distance chemical- and mechano-gating of the mechanosensitive Piezo1 channel” (Nature Communications, 2018)
Values belong to the substance of their own block, whether it stands above or below them.

Key:
Experiment in all cases: SEC; Superose-6 10/300 GL (FPLC) in 25 mM Na-PIPES pH 7.2, 140 mM NaCl, 2 mM DTT, 0.026% C12E10; oligomeric state judged from the peak position against wild-type mPiezo1
[1] = target: mPiezo1-ΔL19-20 (870–921) (mouse) (UniProt E2JF22)
mouse Piezo1 (mouse) = mouse Piezo1 (mouse) (UniProt E2JF22); conditions: remark: other sources report otherwise
[2] = target: mPiezo1-ΔL15-16 (657-677) (mouse) (UniProt E2JF22)

stoichiometry N [1]: 3
Substance: mPiezo1-ΔL19-20 (870–921), E2JF22 1-869; E2JF22 922-2547

stoichiometry N (mouse Piezo1 (mouse)): 3
Substance: mouse Piezo1, E2JF22 1-2547

stoichiometry N [2]: 3
Substance: mPiezo1-ΔL15-16 (657-677), E2JF22 1-656; E2JF22 678-2547
